Bridge positions count the residues as written; N and C are the ends. Square brackets hold non-standard residues; d marks the D form. Ends that are not written are not given here.

Experiment [1] has as its target T1, Somatostatin receptor subtype 2 (SST-2) on rat pancreatic carcinoma AR4-2J cells (rat, UniProt P30680 1-369).
T1 construct: whole, on cells; Whole-cell suspension; the cells express predominantly, not only, SST-2; also called AR2-2J cells
In words: competition with [125I]-[Tyr1]-somatostatin on AR4-2J cell suspension, filtration, Cheng-Prusoff. Here is the method: (§1) The cells were grown in tissue culture dishes (Falcon) which were incubated at 37° C. in an atmosphere of 5% CO₂ and 95% humidified air in DMEM medium with 4.5 g/l glucose supplemented with 1% L-glutamine, 20% foetal calf serum, 1% penicillin/streptomycin and amphotericin B (1 μg/mL). Subculturing was performed with a trypsin/EDTA (0.05%/0.02% w/v) solution. All products were purchased from Sigma (Saint-Quentin Fallavier; France). At 100% confluence, the medium was removed and the cells were harvested using Versen buffer (PBS+5 mM EDTA), washed with ice-cold phosphate buffer and finally centrifuged at 1000 g for 7 min (4° C.). The pellet was suspended in ice-cold buffer (10 mM MgCl₂, 0.25% BSA, 50 mM HEPES pH7.5, 1% protease inhibitor cocktail (Sigma) and cells suspension was stored in ice before binding experiments.
(§2) All binding experiments for AR4-2J cells were done at 37° C. in 10 mM MgCl₂, 0.25% BSA, 50 mM HEPES pH7.5, 1% protease inhibitor cocktail (Sigma). […] Non-specific binding was determined in the presence of 5 μM somatostatin-28. Incubation was terminated by addition of ice-cold washing buffer (Tris 10 mM pH7.2) and rapid filtration over Whatman GF/C glass fiber filters pre-soaked in 0.5% polyethylenimine. The filters activity was measured in a Cobra gamma counter. Each experiment has been performed in duplicates at least two times.

Experiment [2] has as its target somatostatin receptor SST-5 (CHO-SST-5 (mb)) (Homo sapiens (Human), UniProt P35346 1-364). In words: radioligand competition binding, CHO-SST-5 (mb).
Experiment [3] deals with somatostatin receptor SST-1 (CHO-SST-1 (mb)) (Homo sapiens (Human), UniProt P30872 1-391). Kind of experiment: radioligand competition binding, CHO-SST-1 (mb).
Experiment [4] has as its target T1, Somatostatin receptor subtype 2 (SST-2) …. In words: competition with [125I]-[Tyr1]-somatostatin on AR4-2J cell suspension. Here is the method:
as §1, §2

The target in experiment [5] is T2, somatostatin receptor SST-2 (CHO-SST-2 (mb)) (Homo sapiens (Human), UniProt P30874 1-369).
T2 construct: Printed as 'CHO-SST-2 (mb)'; also called SST-2 receptor
In words: radioligand competition binding, CHO-SST-2 (mb).

Experiment [6] has as its target somatostatin receptor SST-3 (CHO-SST-3 (mb)) (Homo sapiens (Human), UniProt P32745 1-418). In words: radioligand competition binding, CHO-SST-3 (mb).

T1 sequence (P30680 whole entry): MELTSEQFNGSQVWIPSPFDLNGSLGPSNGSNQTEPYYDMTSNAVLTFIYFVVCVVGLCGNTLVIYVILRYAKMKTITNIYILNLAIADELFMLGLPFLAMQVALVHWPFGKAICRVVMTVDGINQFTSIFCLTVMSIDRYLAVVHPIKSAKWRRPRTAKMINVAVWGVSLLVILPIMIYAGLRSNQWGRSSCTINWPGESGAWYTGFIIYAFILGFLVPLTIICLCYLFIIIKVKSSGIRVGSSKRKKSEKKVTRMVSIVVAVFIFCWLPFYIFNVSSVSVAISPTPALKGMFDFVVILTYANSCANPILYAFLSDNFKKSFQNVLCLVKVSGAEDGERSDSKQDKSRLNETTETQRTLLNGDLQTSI
T2 sequence (P30874 whole entry, form in doubt): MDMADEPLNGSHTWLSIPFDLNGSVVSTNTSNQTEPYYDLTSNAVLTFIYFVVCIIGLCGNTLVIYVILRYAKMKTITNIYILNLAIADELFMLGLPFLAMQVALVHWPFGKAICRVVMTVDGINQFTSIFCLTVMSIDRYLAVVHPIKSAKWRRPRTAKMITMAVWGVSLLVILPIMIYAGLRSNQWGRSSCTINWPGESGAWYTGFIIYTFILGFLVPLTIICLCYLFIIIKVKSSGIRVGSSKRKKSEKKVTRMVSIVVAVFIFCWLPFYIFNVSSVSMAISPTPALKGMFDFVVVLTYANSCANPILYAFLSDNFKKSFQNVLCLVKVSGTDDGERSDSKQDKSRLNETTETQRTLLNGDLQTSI
Sequence of somatostatin receptor SST-3 (CHO-SST-3 (mb)) (P32745 whole entry, form in doubt): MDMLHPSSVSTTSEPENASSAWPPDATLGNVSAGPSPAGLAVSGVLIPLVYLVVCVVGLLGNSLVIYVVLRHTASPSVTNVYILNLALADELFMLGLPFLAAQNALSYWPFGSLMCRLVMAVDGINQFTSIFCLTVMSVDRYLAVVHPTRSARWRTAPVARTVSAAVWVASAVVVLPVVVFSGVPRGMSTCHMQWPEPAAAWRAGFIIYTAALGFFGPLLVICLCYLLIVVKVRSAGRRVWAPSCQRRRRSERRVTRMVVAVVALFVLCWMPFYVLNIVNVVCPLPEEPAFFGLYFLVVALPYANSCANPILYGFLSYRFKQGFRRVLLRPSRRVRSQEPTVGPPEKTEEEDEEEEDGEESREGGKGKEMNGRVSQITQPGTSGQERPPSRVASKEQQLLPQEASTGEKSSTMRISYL
Sequence of somatostatin receptor SST-1 (CHO-SST-1 (mb)) (P30872 whole entry, form in doubt): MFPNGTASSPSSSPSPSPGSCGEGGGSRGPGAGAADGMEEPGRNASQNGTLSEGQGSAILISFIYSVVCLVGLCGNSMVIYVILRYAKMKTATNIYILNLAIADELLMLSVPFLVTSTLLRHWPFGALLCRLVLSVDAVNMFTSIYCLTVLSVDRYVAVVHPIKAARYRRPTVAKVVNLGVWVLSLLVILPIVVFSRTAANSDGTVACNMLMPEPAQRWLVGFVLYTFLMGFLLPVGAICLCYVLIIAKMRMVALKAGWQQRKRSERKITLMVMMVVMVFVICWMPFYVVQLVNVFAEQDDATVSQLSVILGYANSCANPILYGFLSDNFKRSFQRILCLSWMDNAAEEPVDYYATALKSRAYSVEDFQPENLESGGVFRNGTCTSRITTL
Sequence of somatostatin receptor SST-5 (CHO-SST-5 (mb)) (P35346 whole entry, form in doubt): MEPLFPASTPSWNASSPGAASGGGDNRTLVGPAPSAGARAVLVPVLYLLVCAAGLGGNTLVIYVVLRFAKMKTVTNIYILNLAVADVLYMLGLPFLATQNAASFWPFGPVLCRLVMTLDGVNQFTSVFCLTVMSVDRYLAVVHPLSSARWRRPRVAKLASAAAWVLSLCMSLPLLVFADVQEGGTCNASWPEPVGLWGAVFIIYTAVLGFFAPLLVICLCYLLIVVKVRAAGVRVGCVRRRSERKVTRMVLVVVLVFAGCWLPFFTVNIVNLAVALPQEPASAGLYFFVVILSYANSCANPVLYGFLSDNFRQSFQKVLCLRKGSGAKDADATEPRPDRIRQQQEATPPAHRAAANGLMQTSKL

B1: RC-121 (peptide)
peptide: [dF]CY[dW]KVCT-NH2
modifications: disulfide 2-7
notes: Cyclic octapeptide somatostatin analog, made by solid phase synthesis
With B1, the Ki in experiment [1] came to 0.3 nM.

B2: TcO[HTGRRRGG-RC-121] (peptide)
peptide: TGRRRGGFCYWKVCT
modifications: [TcO]3+ core chelated by the N-terminal HTGRRR tag; free N-terminus; the RC-121 part carries D-Phe, D-Trp, a C-terminal amide and the preserved disulfide bridge
Consider B2, for which the Ki in experiment [2] was found to be 30 nM; in experiment [3], 58 nM; in experiment [1] it was 0.066 nM; in experiment [5], 0.02 nM; in experiment [6], 10 nM. The molecule also returned a Kd in experiment [4] of 0.06 nM.

B3: HTGRRRGG-RC-121 (peptide)
peptide: TGRRRGGFCYWKVCT
HELM: PEPTIDE1{T.G.R.R.R.G.G.[dF].C.Y.[dW].K.V.C.T.[am]}$PEPTIDE1,PEPTIDE1,9:R3-14:R3$$$V2.0
SMILES: CC(C)[C@@H]1NC(=O)[C@H](CCCCN)NC(=O)[C@@H](Cc2c[nH]c3ccccc23)NC(=O)[C@H](Cc2ccc(O)cc2)NC(=O)[C@@H](NC(=O)[C@@H](Cc2ccccc2)NC(=O)CNC(=O)CNC(=O)[C@H](CCCNC(=N)N)NC(=O)[C@H](CCCNC(=N)N)NC(=O)[C@H](CCCNC(=N)N)NC(=O)CNC(=O)[C@@H](N)[C@@H](C)O)CSSC[C@@H](C(=O)N[C@H](C(N)=O)[C@@H](C)O)NC1=O
notes: not complexed with Tc
Regarding B3, the Ki was found to be 0.035 nM in experiment [1] and 0.02 nM in experiment [5].

The values above are taken from patent publication US20110318827A1 (COMMISSARIAT A L ENERGIE ATOMIQUE ET AUX ENERGIES …, published 2011).
